Data on 16 molecules can be found in patent US20240141038A1 (SHANGHAI QILU PHARMACEUTICAL RESEARCH AND DEVELOPMENT CENTRE, published 2024).

For assay [1], the target named is T1, Human NKp46 antigen for immunization, screening, and testing (Kactus, NKP-HM146) (human, UniProt O76036 22-255).
T1 construct: Bought protein; also called human NKp46 antigen protein; human NKp46 protein
The experiment in a line: ELISA, coated antigen, VHH supernatant, anti-Myc HRP. As to the method: (§1) In order to obtain positive antibodies that can cross-bind to human NKp46 and cynomolgus monkey NKp46, the above libraries were amplified and added into M13K07 helper phage and assembled into bacteriophages. 1×10¹² pfu of immune camel antibody library and immune alpaca antibody library were added thereto, and the phages were incubated with biotinylated human NKp46 protein (8 μg/mL) bound to magnetic beads for 1 h at room temperature. After washing off the unbound bacteriophages with 0.05% PBST, the phages specifically bound to NKp46 were eluted with […] triethylamine, and after gradient dilution of the bacteriophages above, E. coli SS320 in the logarithmic growth phase were infected. After being cultured overnight at 37° C. on plates containing ampicillin, single-clone was picked for IPTG-induced expression, and the supernatant was used for ELISA assay. ELISA plates were coated with […] human NKp46 antigen or cynomolgus monkey NKp46 antigen overnight at 4° C., then washed 3 times with 0.05% PBST and blocked with 5% skim milk at room temperature for 1 h, and washed 3 times with 0.05% PBST. Then 30 µL of induced supernatant was then added into per well, medium were added to negative control wells, the ELISA plates were incubated at room temperature for 1 h, and finally detected with anti-Myc HRP (VHH with his and c-Myc labels were expressed by the induction of IPTG. Sequence clones that had OD450 values of greater than 1.0 for binding to human NKp46 and cynomolgus monkey NKp46 as determined by ELISA, and of which the ratio of OD450 values to that of negative control were greater than 3 were sequenced, thereby obtaining amino acid sequences of 30 variable regions of heavy chain antibodies disclosed in the present disclosure, as shown in Table 2.
A general note: An ELISA detects its analyte on a solid surface through an enzyme-linked reagent.

The target in assay [2] is T2, Cynomolgus monkey NKp46 for immunization, screening, and testing (Kactus, NKP-CM146) (cynomolgus monkey, UniProt Q95JB9 22-254).
T2 construct: Bought protein; also called monkey NKp46 antigen protein; cynomolgus monkey NKp46 antigen
Described as above. As to the method:
as §1

T2 sequence (Q95JB9 other isoform, or with tags, fused parts or gaps limits assumed): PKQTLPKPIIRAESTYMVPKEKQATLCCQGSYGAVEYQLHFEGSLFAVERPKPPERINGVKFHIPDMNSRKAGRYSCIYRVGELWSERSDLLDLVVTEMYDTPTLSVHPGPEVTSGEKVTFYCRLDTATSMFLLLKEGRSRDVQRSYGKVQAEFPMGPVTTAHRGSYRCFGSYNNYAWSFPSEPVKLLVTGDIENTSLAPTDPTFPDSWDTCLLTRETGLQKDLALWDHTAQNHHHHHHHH
T1 sequence (O76036 other isoform, or with tags, fused parts or gaps limits assumed): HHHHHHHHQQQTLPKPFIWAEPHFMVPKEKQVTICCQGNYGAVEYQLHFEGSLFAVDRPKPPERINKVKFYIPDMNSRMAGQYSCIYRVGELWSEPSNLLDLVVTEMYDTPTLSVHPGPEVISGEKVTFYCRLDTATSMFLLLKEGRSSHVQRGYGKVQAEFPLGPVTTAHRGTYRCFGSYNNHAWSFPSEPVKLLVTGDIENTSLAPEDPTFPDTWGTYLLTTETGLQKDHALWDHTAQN

B1: NKp46-PC1 VHH (his and c-Myc labels) (VHH)
VHH: QVQLVESGGGSVQAGGSLTLSCATSGYTYRTDCMGWFRQAPGKEREGLATIYTSDGRTDYANSVKGRFTISQDNAKNTLYLHMNNLKPEDTAIYYCAADPQYGGVCPSGGWNYWGQGTQVTVSS
notes: IPTG-induced E. coli supernatant used in the screening ELISA; also called NKp46-PC1 clone supernatant; not shown: his and c-Myc labels
Turning to B1, the OD450 in assay [1] and in assay [2] was over 1 throughout. Besides, the “ratio of OD450 to negative control” value in assay [1] and in assay [2] was over 3 in each case.

B2: NKp46-PC7 VHH (his and c-Myc labels) (VHH)
VHH: EVQLVESGGGSVQAGGSLRLSCAASGYTYRTDCMGWFRQAPGKEREGLATIYTSDGRTAYADSVKGRFTISQDNAKNTLYLDMNTLKPEDTAMYYCAADLQYGGSCPSGGWKYWGQGTLVTVSS
notes: IPTG-induced E. coli supernatant used in the screening ELISA; also called NKp46-PC7 clone supernatant; not shown: his and c-Myc labels
Take B2: in assay [1], the OD450 was over 1 and the “ratio of OD450 to negative control” value was over 3. For the same molecule, in assay [2], the OD450 was over 1 and the “ratio of OD450 to negative control” value was over 3.

B3: NKp46-PC3 VHH (his and c-Myc labels) (VHH)
VHH: DVQLVESGGGSVEAGGSLRLSCAASGYRQRTMGWFRQAPGKAREGVACIYTGPTTTFTDYADSVKGRFTITQDNAKNTVYLQMNSLKPEDTAMYYCAANLAYPLTIIPDTRWGQGTQVTVSS
notes: IPTG-induced E. coli supernatant used in the screening ELISA; also called NKp46-PC3 clone supernatant; not shown: his and c-Myc labels
Consider B3, for which, in assay [1], the OD450 was over 1 and the “ratio of OD450 to negative control” value is over 3. Also, in assay [2], the OD450 is over 1 and the “ratio of OD450 to negative control” value was over 3.

B4: NKp46-PC9 VHH (his and c-Myc labels) (VHH)
VHH: QVQLVESGGGSVQAGGSLRLSCAASGYTYRRYCMAWFRQGPGKEREGVACLDRDGSTTYADSVKGRFTISRDNANDTLYLQMNSLKPEDTALYRCAAAQPGDCWGRRYGFNTWGQGTLVTVSS
notes: IPTG-induced E. coli supernatant used in the screening ELISA; also called NKp46-PC9 clone supernatant; not shown: his and c-Myc labels
As to B4, the OD450 in assay [1] and in assay [2] was over 1 in each case. In addition, the “ratio of OD450 to negative control” value in assay [1] and in assay [2] was over 3 each time.

B5: NKp46-PA31 VHH (his and c-Myc labels) (VHH)
VHH: DVQLVESGGGLVQAGDSLRLSCAVSGRTFSRLPMGWFRQGPGKDREFVAAISWSSSTTYYADSVKGRFFISRDNAKNTAYLQMNNLRLEDTAVYYCAAVGGSLDYSATVVYTAARAYADWGQGTLVTVSS
notes: IPTG-induced E. coli supernatant used in the screening ELISA; also called NKp46-PA31 clone supernatant; not shown: his and c-Myc labels
As for B5, the OD450 in assay [1] and in assay [2] was over 1 each time. Besides, the “ratio of OD450 to negative control” value in assay [1] and in assay [2] was over 3 throughout.

B6: NKp46-PC4 VHH (his and c-Myc labels) (VHH)
VHH: EVQLVESGGGSVQAGGSLRLSCTVSGYTGTIEYMGWGWFRQAPGKEREGVAYINTGGGTSVYDDSVKGRFTISKDDVNLTVYLQMNSLKPEDTAIYYCATGSFFGIWYKVPATQYFHYWGQGTQVTVSS
notes: IPTG-induced E. coli supernatant used in the screening ELISA; also called NKp46-PC4 clone supernatant; not shown: his and c-Myc labels
For B6, in assay [1], the OD450 was over 1 and the “ratio of OD450 to negative control” value is over 3. Further, in assay [2], the OD450 was over 1 and the “ratio of OD450 to negative control” value was over 3.

B7: NKp46-PA45 VHH (his and c-Myc labels) (VHH)
VHH: QVQLVESGGGLVQAGGSLRLLCAASGRTFSRLPMAWFRQGPGKDREFVAAISWSGGSTYYADSMKGRFTISRDNAKNTAYLQMNSLRLEDTAVYYCAAVGDSAPYSATIVYTDARAYAYWGQGTQVTVSS
notes: IPTG-induced E. coli supernatant used in the screening ELISA; also called NKp46-PA45 clone supernatant; not shown: his and c-Myc labels
In the case of B7, in assay [1], the OD450 is over 1 and the “ratio of OD450 to negative control” value is over 3. In assay [2], the OD450 was over 1 and the “ratio of OD450 to negative control” value is over 3.

B8: NKp46-PC12 VHH (his and c-Myc labels) (VHH)
VHH: QVQLVESGGGSVQTGGSLRLSCTAPGFTTDSCGMDWYRQAAGKQREWVSRIRPDGRTDYVESVKGRFTISEDKAKYTVYLQMNSLKPEDTAMYSCTTWGLCTAKFRWGQGTQVTVSS
notes: IPTG-induced E. coli supernatant used in the screening ELISA; also called NKp46-PC12 clone supernatant; not shown: his and c-Myc labels
In the case of B8, in assay [1], the OD450 was over 1 and the “ratio of OD450 to negative control” value was over 3. Besides, in assay [2], the OD450 was over 1 and the “ratio of OD450 to negative control” value was over 3.

B9: NKp46-PA34 VHH (his and c-Myc labels) (VHH)
VHH: QVQLVESGGGLVQTGGSLRLSCAASGSTSSFYRMGWFRQAPGKEREAVARISSSAGLIYYVDSVKGRFTISRAGAKNTVYLQMNSLKPEDTAVYYCAADRHGTRWDYWGQGTQVTVSS
notes: IPTG-induced E. coli supernatant used in the screening ELISA; also called NKp46-PA34 clone supernatant; not shown: his and c-Myc labels
Regarding B9, in assay [1], the OD450 was over 1 and the “ratio of OD450 to negative control” value was over 3. Besides, in assay [2], the OD450 was over 1 and the “ratio of OD450 to negative control” value is over 3.

B10: NKp46-PA69 VHH (his and c-Myc labels) (VHH)
VHH: QVQLVESGGGLIQAGGSLRLSCVASERSLTLYAMGWFRQAPGLEREFVAGISRTGDTTYSPDSVKGRFTISRDNAKNVLYLQMNSLKPDDTAVYYCAASATYSATNIYTHQRAYGDWGQGTQVTVSS
notes: IPTG-induced E. coli supernatant used in the screening ELISA; also called NKp46-PA69 clone supernatant; not shown: his and c-Myc labels
In the case of B10, in assay [1], the OD450 was over 1 and the “ratio of OD450 to negative control” value is over 3. Moreover, in assay [2], the OD450 was over 1 and the “ratio of OD450 to negative control” value is over 3.

B11: NKp46-PA63 VHH (his and c-Myc labels) (VHH, not shown: small tags and cut ends)
VHH: EVQLVESGGGLVQPGGSLRLSCAASGRTSTSYAMGWFRQAPGKEREFVAAINRSGDFPYYADSVKGRFTIFRDNAKNTVYLQMSSVKPEDTGVYFCAAAPRAPATQVVISAFGYEYWGQGTQVTVSS
notes: also called NKp46-PA63 clone supernatant
Consider B11, for which the OD450 in assay [1] and in assay [2] was over 1 in each case. The “ratio of OD450 to negative control” value in assay [1] and in assay [2] was over 3 in each case.

B12: NKp46-PA36 VHH (his and c-Myc labels) (VHH)
VHH: QVQLVESGGGLVQAGGSLRLSCAASGRSFSRYAMGWFRQAPGKERDFVAAISSSGDPTYYADSVKGRFTISRVNAKNTVYLQMNSVNPGDTAVYYCAAGLTARDTTVVVHPNGYSYWGQGTQVTVSS
notes: IPTG-induced E. coli supernatant used in the screening ELISA; also called NKp46-PA36 clone supernatant; not shown: his and c-Myc labels
As for B12, in assay [1], the OD450 is over 1 and the “ratio of OD450 to negative control” value was over 3. Besides, in assay [2], the OD450 is over 1 and the “ratio of OD450 to negative control” value is over 3.

B13: NKp46-PC11 VHH (his and c-Myc labels) (VHH)
VHH: DVQLVESGGGSVQAGGSLRLSCAPSPYSANSFSMAWFRQVPGKEREGIACIQAESGSTNVAPSVKGRFSISQDNAKNTLYLQMNNLKPEDTAMYYCAAFKRNVGGCELRPEHWRFWGQGTLVTVSS
notes: IPTG-induced E. coli supernatant used in the screening ELISA; also called NKp46-PC11 clone supernatant; not shown: his and c-Myc labels
With B13, in assay [1], the OD450 was over 1 and the “ratio of OD450 to negative control” value is over 3. Moreover, in assay [2], the OD450 is over 1 and the “ratio of OD450 to negative control” value was over 3.

B14: NKp46-PC6 VHH (his and c-Myc labels) (VHH)
VHH: DVQLVESGGGSVQAGGSLRLSCAASGYRSRHYCMGWFRQFPGKERERVALINTGGPTTFYADFVEGRFTISLDNAKNTLSLQMNSLKPEDTAMYYCAAGPPSSDSGSGCYVPEYMYNYWGQGTQVTVSS
notes: IPTG-induced E. coli supernatant used in the screening ELISA; also called NKp46-PC6 clone supernatant; not shown: his and c-Myc labels
B14: the OD450 in assay [1] and in assay [2] was over 1 in each case. Besides, the “ratio of OD450 to negative control” value in assay [1] and in assay [2] was over 3 in each case.

B15: NKp46-PA40 VHH (his and c-Myc labels) (VHH)
VHH: QVQLVESGGGLVQAGGSLRLSCAASGRTFSRYSMGWFRQAPGKEREFVAAISSSGDVTHYADSAKGRFIISRDNAKNTVSLQVNSVNLEDTAVYYCAASLTARATTVTVHPNGYNYWGQGTQVTVSS
notes: IPTG-induced E. coli supernatant used in the screening ELISA; also called NKp46-PA40 clone supernatant; not shown: his and c-Myc labels
Regarding B15, in assay [1], the OD450 is over 1 and the “ratio of OD450 to negative control” value was over 3. Further, in assay [2], the OD450 was over 1 and the “ratio of OD450 to negative control” value was over 3.

B16: NKp46-PC8 VHH (his and c-Myc labels) (VHH)
VHH: EVQLVESGGGSVQAGGSLRLSCAVSRGSMASTGCMAWFRQTPGKEREAVAIINISGTTRYTDSVKGRFTIAQDSAKNTLTLQMNSLKPEDTGMYYCAATQNPRTVGRGYCTGDYFQVGGGGYSFWGQGTQVTVSS
notes: IPTG-induced E. coli supernatant used in the screening ELISA; also called NKp46-PC8 clone supernatant; not shown: his and c-Myc labels
For B16, in assay [1], the OD450 was over 1 and the “ratio of OD450 to negative control” value was over 3. In addition, in assay [2], the OD450 is over 1 and the “ratio of OD450 to negative control” value was over 3.
